Substitutions are numbered along the chain they refer to.

Results on ten molecules are retold here after patent publication US20220002417A1 (BAILI BIO CHENGDU PHARMACEUTICAL, published 2022).

The chains are these.
B1: AB4HU (humanized form of antibody AB4) (antibody, human IgG1, kappa, V domains shown)
VH: EVQLVESGGGLVQPGGSLRLSCTVSGIDLSVINMGWVRQAPGKGLEWIGTITYVGNTYYASWAKGRFTISKTSTTVDLKITSPTTEDTAVYYCARESGTIYYSYFNLWGQGTLVTVSS
VL: AFELTQSPSSLSASVGDRVTIKCQASESISNYLSWYQQIPGKVPKLLIYYASNLASGVPSRFSGSGSGTDFTLTISSLQPEDVATYYCQSYYGGGSAYTFGGGTKVEIKR
notes: Humanized, human gamma-1 / kappa constant domains
B2: AB1HU (humanized form of antibody AB1) (antibody, human IgG1, kappa, V domains shown)
VH: EVQLLESGGGLVQPGGSLRLSCAASGFSFSSGYDMCWVRQAPGKGLEWIACIAAGSAGITYDANWAKGRFTISRDNSKNTLYLQMNSLRAEDTAVYYCARSAFSFDYAMDLWGQGTLVTVSS
VL: DIQMTQSPSTLSASVGDRVTITCQASQSISSHLNWYQQKPGKAPKLLIYKASTLASGVPSRFSGSGSGTEFTLTISSLQPDDFATYYCQQGYSWGNVDNVFGGGTKVEIKR
notes: as for B1
B3: AB1 (rabbit/human chimeric anti-PD-L1 antibody) (antibody, human IgG1, kappa, V domains shown)
VH: QEQLVESGGGLVQPEGSLTLTCKASGFSFSSGYDMCWVRRAPGKGLEWIACIAAGSAGITYDANWAKGRFTISKTSSTTVTLQMTSLTAADTATYFCARSAFSFDYAMDLWGPGTLVTVSS
VL: DPVLTQTPASVEVAVGGTVTIKCQASQSISSHLNWYQQKPGQPPKLLIYKASTLASGVPSRFKGSGSGTEFTLTISSVQCDNAATYYCQQGYSWGNVDNVFGGGTEVVVKR
notes: Rabbit variable domains on human IgG1 / human kappa constant domains; purified by protein A from HEK-293 supernatants; also called AB1 CHIMERIC
B4: AB2 (rabbit/human chimeric anti-PD-L1 antibody) (antibody, human IgG1, kappa, V domains shown)
VH: QSLEESGGRLVTPGTPLTLTCTTSGIDLSTYDMIWVRQAPGKGLEYIGIISYVGNTYYASWAKGRFTLSKTSTTVDLRITSPTTEDTATYFCARDFISGSHLWGPGTLVTVSS
VL: AYDMTQTPASVSAAVGGTVTINCQASESISSFLSWYQQKPGQRPRLLIFSASTLASGVPSRFKGSGSGTEFTLTISGVECADAATYYCQQGYSKSNVDNAFGGGTEVVVKR
notes: Rabbit variable domains on human IgG1 / human kappa constant domains; also called AB2 CHIMERIC
B5: AB3 (rabbit/human chimeric anti-PD-L1 antibody) (antibody, human IgG1, kappa, V domains shown)
VH: QEQLEESGGGLVTPGGTLTLTCTVSGFSLSSYWMSWVRQAPGKGLEWIGVIDTNVYIYYANWAKGRFTISKTSTTVDLKITSPTTEDTATYFCARYVGNNDDYINLWGPGTLVTVSS
VL: AVLTQTPSPVSAAVGGTVSISCQSSQSVYNGYWLSWYQQKPGQPPKLLIYGASTLASGVPSRFKGSGSGTQFTLTINDVQCDDAATYYCLGSYTSSTENSFGGGTEVVVKR
notes: Rabbit variable domains on human IgG1 / human kappa constant domains; also called AB3 CHIMERIC
B6: AB3HU (humanized form of antibody AB3) (antibody, human IgG1, kappa, V domains shown)
VH: EVQLVESGGGLVQPGGSLRLSCAASGFSLSSYWMSWVRQAPGKGLEWIGVIDTNVYIYYANWAKGRFTISRDNSKNTLYLQMNSLRAEDTAVYYCARYVGNNDDYINLWGQGTLVTVSS
VL: DIQMTQSPSTLSASVGDRVTITCQSSQSVYNGYWLSWYQQKPGKAPKLLIYGASTLASGVPSRFSGSGSGTEFTLTISSLQPDDFATYYCLGSYTSSTENSFGGGTKVEIKR
notes: as for B1
B7: AB2HU (humanized form of antibody AB2) (antibody, human IgG1, kappa, V domains shown)
VH: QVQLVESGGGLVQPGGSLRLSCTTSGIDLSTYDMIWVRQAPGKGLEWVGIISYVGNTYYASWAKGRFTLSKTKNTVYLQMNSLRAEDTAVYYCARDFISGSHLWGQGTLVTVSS
VL: AYDMTQSPSSVSASVGDRVTINCQASESISSFLSWYQQKPGKAPKLLIFSASTLASGVPSRFSGSGSGTDFTLTISSLQPEDFATYYCQQGYSKSNVDNAFGGGTKVEIKR
notes: as for B1
B8: AB5HU (humanized form of antibody AB5) (antibody, human IgG1, kappa, V domains shown)
VH: QSVEESGGGLVQPGGSLRLSCTASGIDLNTYDMIWVRQAPGKGLEWVGIITYSGSRYYANWAKGRFTISKDNTKNTVYLQMNSLRAEDTAVYYCARDYMSGSHLWGQGTLVTVSS
VL: B7 VL with N22K, S28D, S30Y, S34A, F49H, T53S, S93G, S95N
notes: as for B1
B9: AB4 (rabbit/human chimeric anti-PD-L1 antibody) (antibody, human IgG1, kappa, V domains shown)
VH: QSVEESGGRLVTPGTPLTLTCTVSGIDLSVINMGWVRQAPGEGLEWIGTITYVGNTYYASWAKGRFTISKTSTTVDLKITSPTTEDTATYFCARESGTIYYSYFNLWGQGTLVTVSS
VL: AFELTQTPASVSEPVGGTVTIKCQASESISNYLSWYQQIPGQPPNLLIYYASNLASGVPSRFKGSGSGTEFTLTISDLECADAATYYCQSYYGGGSAYTFGGGTEVVVKR
notes: Rabbit variable domains on human IgG1 / human kappa constant domains; also called AB4 CHIMERIC
B10: AB5 (rabbit/human chimeric anti-PD-L1 antibody) (antibody, human IgG1, kappa, V domains shown)
VH: QSVEESGGRLVTPGTPLTLTCTVSGIDLNTYDMIWVRQAPGKGLEWIGIITYSGSRYYANWAKGRFTISKTSTTVDLRITSPTTEDTATYFCARDYMSGSHLWGPGTLVTVSS
VL: AYDMTQTPASVEVAVGGTVTIKCQASEDIYSFLAWYQLKPGQSPKLLIHSASSLASGVSSRFKGSGSGTHFTLTISGVECADAATYYCQQGYGKNNVDNAFGGGTEVVVKR
notes: Rabbit variable domains on human IgG1 / human kappa constant domains; also called AB5 CHIMERIC

This assay deals with T1, human PD-L1 extracellular domain (human, UniProt Q9NZQ7 19-238).
T1 construct: also called recombinant PD-L1; recombinant human PD-L1 extracellular domain protein
T1 sequence (Q9NZQ7 19-238 limits assumed): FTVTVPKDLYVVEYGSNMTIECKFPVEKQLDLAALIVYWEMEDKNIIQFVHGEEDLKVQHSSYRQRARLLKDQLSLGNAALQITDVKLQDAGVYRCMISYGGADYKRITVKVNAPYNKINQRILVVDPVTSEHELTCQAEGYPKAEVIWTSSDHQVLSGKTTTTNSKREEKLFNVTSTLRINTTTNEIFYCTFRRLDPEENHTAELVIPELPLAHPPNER
In words: BLI (Octet Red 96), antibody on anti-human Fc biosensor, PD-L1 ECD in solution, 1:1 global fit. The procedure: The binding kinetics of selected anti-PD-L1 antibodies AB1-AB5 and AB1HU-AB5HU was determined by bio-layer interferometry analysis on a ForteBio Octet Red 96 instrument. First, purified antibodies were produced by protein A chromatography using HEK-293 transiently-transfected antibody supernatants. This assay was performed by immobilizing the purified antibodies to anti-human Fc biosensors. PD-L1 binding to and dissociation from the biosensors was then observed at various concentrations of PD-L1. Specifically, eight anti-human Fc biosensors were placed into wells containing the same purified antibody for 5 minutes. Biosensors were equilibrated in kinetics buffer (Pall ForteBio) for 1 minute to establish a baseline. Association of PD-L1 was observed by placing the biosensors into wells containing various concentrations of human PD-L1 extracellular domain for 5 minutes. Dissociation was measured after transfer of the biosensors into kinetics buffer and monitoring the interferometry signals for 15 minutes. All steps of the assay were performed at 30° C. with shaking at 1000 RPM. The on and off rates (kon and koff) and the equilibrium binding constant KD were determined using the software provided by the manufacturer and were fit using a 1:1 binding global fit model comprising several of the concentrations tested.
Molecule B1 came in with a Kd of 1.7 nM, a koff of 0.000766 s⁻¹ and an on-rate constant (kon) of 451000 M⁻¹ s⁻¹.

Molecule B2 gave an equilibrium dissociation constant (Kd) of 0.422 nM, a koff of 0.000239 s⁻¹ and a kon of 568000 M⁻¹ s⁻¹.

B3 gave a Kd of 0.347 nM, a koff of 0.00015 s⁻¹ and an association rate constant (kon) of 433000 M⁻¹ s⁻¹.

As for B4, the Kd worked out at 0.379 nM, the koff was determined as 0.000166 s⁻¹ and the kon turned out to be 438000 M⁻¹ s⁻¹.

The molecule B5 showed a Kd of 0.467 nM, an off-rate (koff) of 0.000144 s⁻¹ and a kon of 308000 M⁻¹ s⁻¹.

On to B6, for which binding was characterised by a dissociation constant (Kd) of 1.81 nM, the koff is 0.000337 s⁻¹ and the kon came out at 186000 M⁻¹ s⁻¹.

For B7, the Kd is 0.366 nM, the koff was determined as 0.000203 s⁻¹ and the kon is 553000 M⁻¹ s⁻¹.

B8 displayed a Kd of 0.401 nM, a koff of 0.000234 s⁻¹ and a kon of 583000 M⁻¹ s⁻¹.

Take B9: the Kd was 1.01 nM, the koff came to 0.000422 s⁻¹ and the kon came out at 417000 M⁻¹ s⁻¹.

Take B10: binding was put at a Kd of 0.286 nM, the koff was determined as 0.000175 s⁻¹ and the kon worked out at 613000 M⁻¹ s⁻¹.

The Kd is the equilibrium constant for the complex coming apart. Lower therefore signals higher affinity. A word on the koff: it is a measure of how fast the partners let go of each other. Read a low koff as a long-lived complex. The term kon denotes the rate constant with which the complex forms. High values mean faster complex formation, low ones slower complex formation.
